Tests used:
[1] = test system: NOD2-mediated IL-1β and IL-10 production; assay: Peritoneal immune cells cultured with SB203580 and/or MDP, IL-1β and IL-10 measured in culture; assay type: cell-based, mice
Description: (§1) Concentrations of IL-1β, IL-6, IL-10, IFN-γ, TNF-α and C5a in serum and peritoneal fluid were measured in CLP-induced sepsis mice. All cytokines were measured using a BD Bioscience ELISA kit according to the manufacturer's instructions. Colorimetric reactions were stopped by adding 3 N HCl, and the optical absorbance at 450 and 570 nm was determined using a spectrophotometer.
To investigate the mechanism by which NOD2 enhances C5 generation during polymicrobial infection, serum and peritoneal levels of various cytokines in WT and Nod2^−/− mice were estimated after CLP. […] To confirm whether NOD2-mediated signals induce IL-1β and IL-10 production by immune cells, peritoneal cells from WT and Nod2^−/− mice were cultured with MDP, a NOD2 agonist. […] Among immune cells, monocytes, granulocytes, and dendritic cells, but not T or B cells, express NOD 2 (Gutierrez, O. et al. Induction of Nod2 in myelomonocytic and intestinal epithelial cells via nuclear factor-kappa B activation. J Biol Chem 277, 41701-41705 (2002)).
Upon activation, NOD2 oligomerizes and recruits the nuclear factor (NF)-κB-activating kinase receptor-interacting protein 2 (RIP2) via a homotypic CARD-CARD (caspase recruitment domain) interaction, triggering IκB phosphorylation and NF-κB activation.

[2] = molecular target: T1, RIP2 (Mus musculus, UniProt P58801); assay: Blot of RIP2 phosphorylation in peritoneal immune cells during CLP-induced sepsis; assay type: in vivo; settings: WT mice, SB203580 50 μg/mouse i.p.
T1 construct: reduced phosphorylation of RIP2 and P38 in peritoneal immune cells; endogenous in cells
T1 sequence (P58801 whole entry): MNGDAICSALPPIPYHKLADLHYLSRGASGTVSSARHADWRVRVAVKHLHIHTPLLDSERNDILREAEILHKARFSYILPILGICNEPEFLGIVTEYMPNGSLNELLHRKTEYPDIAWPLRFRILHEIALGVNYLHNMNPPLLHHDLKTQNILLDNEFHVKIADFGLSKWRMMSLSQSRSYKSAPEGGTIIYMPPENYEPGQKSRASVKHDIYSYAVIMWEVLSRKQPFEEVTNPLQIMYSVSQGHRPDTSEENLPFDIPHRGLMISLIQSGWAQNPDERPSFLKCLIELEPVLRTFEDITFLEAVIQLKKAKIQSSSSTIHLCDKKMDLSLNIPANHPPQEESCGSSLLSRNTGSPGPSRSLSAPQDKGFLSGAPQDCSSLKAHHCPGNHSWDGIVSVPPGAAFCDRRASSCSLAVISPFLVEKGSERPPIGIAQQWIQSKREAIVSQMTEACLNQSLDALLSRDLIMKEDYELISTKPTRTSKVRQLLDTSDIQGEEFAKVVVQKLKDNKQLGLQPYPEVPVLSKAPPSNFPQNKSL

[3] = test system: CLP-induced sepsis mice; assay: Serum and peritoneal cytokine and complement levels (ELISA) in CLP-induced sepsis mice; assay type: in vivo; settings: for serum and peritoneal C5a generation: WT or Nod2−/− mice, recombinant cytokine 4 h or 12 h after CLP
Description: (§2) To deplete Gr-1^+cells in vivo, WT B6 or NOD2−/− mice were i.p. injected with anti-Gr-1 mAb (160 μg/injection) (BD Bioscience, Sparks, Md., USA) 2 and 3 days prior to CLP. Recombinant mouse (mr) IL-1β (40 μg/mouse) or IL-10 (30 μg/mouse) (ProSpec-Tany TechnoGene, Rehovot, Israel) was i.p. injected into WT or Nod2^−/− mice 4 or 12 h after CLP, respectively. mrC5a (5 μg/injection) or anti-05a mAb (100 μg/injection) (R&D Systems Inc., Minneapolis, Minn., USA) was i.p. injected into WT or Nod2^−/− mice 4 and 12 h after CLP.
as §1

[4] = test system: CD55; assay: CD55 expression on Ly6-G+ peritoneal cells (flow cytometry) after CLP; assay type: in vivo, mice
Description: as §2
PLF cells were incubated with antibodies on ice for 30 min in 100 μl of staining buffer (0.5% BSA). FITC-conjugated anti-Ly-6G, phycoerythrin (PE)-conjugated anti-CD4 mAb, PE-conjugated anti-CD8, PE-conjugated anti-MHC class II, FITC-conjugated anti-CD80, FITC-conjugated anti-CD86, FITC-conjugated anti-annexin V mAbs, and 7AAD (7-amino-actinomycin D) were purchased from BD Biosciences. PE Cy5- or Alexa 647 (eBioscience, San Diego, Calif., USA)-conjugated anti-F4/80 mAb was used. Stained cells were then run on an LSR II and FACs caliber (BD Bioscience) and analyzed using Flowjo software (Treestar, Ashland, Oreg., USA).

[5] = test system: CLP-induced sepsis; assay: Survival in CLP-induced sepsis; assay type: in vivo, mice; settings: for survival during CLP-induced sepsis: WT mice injected with recombinant protein after CLP
Description: as §2
Survival data were plotted as Kaplan-Meier survival curves and analyzed using the log-rank test. Statistical significance was analyzed using Prism 5.0 (GraphPad Software Inc, San Diego, Calif., USA). One-way and two-way analyses of variance (ANOVA) and t-tests was performed, and a post hoc test was used if P<0.05. Data are expressed as the mean±standard error of the mean.

[6] = cited from earlier work
[7] = test system: peritoneal immune cells; assay: Responsiveness of peritoneal immune cells from CLP mice against LPS (cytokine production LPS vs PBS); assay type: in vivo; settings: for LPS-mediated cytokine production by peritoneal immune cells: cells from Nod2−/− mice with CLP
Description: as §2
(§3) During bacterial septic shock, C5a triggers coagulopathy and neutrophil dysfunction, thereby defective bacterial clearance and cytokine production (Ward, P. A. The dark side of C5a in sepsis. Nat Rev Immunol 4, 133-142 (2004)). Therefore, to estimate C5a effects on immune responses in WT B6 and Nod2^−/− mice during infection, we examined the responsiveness of immune cells against lipopolysaccharide (LPS) and macrophage phagocytic activity, bacteria colony-forming units (CFUs), and levels of serum D-dimer after CLP. To estimate the responsiveness of peritoneal immune cells against LPS, peritoneal cells obtained from B6 or Nod2^−/− mice 24 h after CLP were stimulated with LPS or PBS (FIG. 1C). The responsiveness of peritoneal immune cells against LPS was determined by estimating ratios of individual cytokines produced against LPS versus PBS. Peritoneal immune cells obtained from Nod2^−/− mice 24 h after CLP produced higher IL-1β, IL-6, and TNF-αlevels against LPS than did WT peritoneal cells. The levels of serum D-dimer in Nod2^−/− mice were lower than those in WT mice (FIG. 1D). However, peritoneal cells obtained from Nod2^−/− mice engulfed more FITC-conjugated Escherichia coli than did WT peritoneal cells (FIG. 1E). Consistent with these findings, bacteria CFU levels in the blood and liver homogenates were higher in WT B6 mice than in Nod2^−/− mice (FIG. 1F). Recombinant C5a administration to Nod2^−/− mice with CLP reversed cytokine production by peritoneal immune cells and serum D-dimer levels, but not phagocytosis activity and bacterial CFUs.

[8] = Serum D-dimer levels after CLP; assay type: in vivo; settings: Nod2−/− mice with CLP
From the text: as §3, with “Recombinant C5a administration to Nod2^−/− mice with CLP reversed cytokine production by peritoneal immune cells and serum D-dimer levels, but not phagocytosis activity and bacterial CFUs.” left out

[9] = test system: bacteria; assay: Bacterial CFUs in blood and liver homogenates after CLP; assay type: in vivo; settings: Nod2−/− mice with CLP
Description: Bacterial CFUs were determined by plating serial dilutions of blood and liver homogenates onto blood agar plates (Hanil Komed, Seoul, Korea), which were incubated in 5% CO2 at 37° C. overnight. The number of colonies was counted 18 h later.

[10] = test system: peritoneal cells; assay: Bacterial phagocytosis by peritoneal immune cells (FITC-labeled E. coli); assay type: in vivo; settings: Nod2−/− mice with CLP
Description: Peritoneal fluid cells of WT B6 or Nod2^−/− mice were cultured with FITC-labeled E. coli (Invitrogen, Carlsbad, Calif., USA) for 15 min. Cells attached on the plates were washed with warm PBS three times and then treated with 0.2% trypan blue for 1 min at room temperature. Cells were fixed with 4% formalin for 15 min and cultured with FITC-labeled E. coli. to estimate nonspecific binding of E. coli on the cell surface. These cells, which were cultured with FITC-labeled E. coli, were then run on the FACs caliber machine and analyzed with Flowjo software.

[11] = WT mice peritoneal immune cells, SB203580 20 nM, MDP 20 μg/ml, 24 h
[12] = WT mice, CLP, SB203580 50 μg/mouse i.p.
[13] = 73 patients treated, Critical Care Medicine 2009
[14] = Nod2−/− mice injected with recombinant protein after CLP
[15] = Nod2−/− mice, polymicrobial infection

CC(=O)N[C@@H]1[C@@H](O[C@H](C)C(=O)N[C@@H](C)C(=O)N[C@H](CCC(=O)O)C(N)=O)[C@H](O)[C@@H](CO)O[C@H]1O [MDP]
IL-1β production upon MDP treatment ([1]; NOD2-deficient cells): minimally produced
IL-10 production upon MDP treatment ([1]; NOD2-deficient cells): minimally produced
IL-1β production upon MDP treatment ([1]; WT peritoneal immune cells): produced
IL-10 production upon MDP treatment ([1]; WT peritoneal immune cells): produced

C[S+]([O-])c1ccc(-c2nc(-c3ccncc3)c(-c3ccc(F)cc3)[nH]2)cc1 (centres unmarked) [SB203580, reference compound]
MDP-mediated IL-1β production by peritoneal cells [1, 11]: decreased
MDP-mediated IL-10 production by peritoneal cells [1, 11]: decreased
phosphorylation of RIP2 in peritoneal immune cells [2]: reduced
levels of serum and peritoneal C5a during sepsis [3, 12]: reduced
levels of serum and peritoneal IL-1β during sepsis [3, 12]: reduced
levels of serum and peritoneal IL-10 during sepsis [3, 12]: reduced
CD55 expression levels of Ly6-G+ granulocytes [4, 12]: reduced
CLP-induced sepsis ([5]; WT mice injected with SB203580, FIG. 6 legend): attenuates
survival rates during CLP-induced sepsis ([5]; WT mice, SB203580 50 μg/mouse i.p. vs PBS): increased

Drotrecogin alfa [Xigris]
fatality [6, 13]: increased
hemorrhage [6, 13]: severe hemorrhage had occurred
severe side effect in clinical trial ([6]; pediatric patients with severe blood infection): cerebral hemorrhage

B1: recombinant C5a: recombinant mouse C5a, i.p. injected 5 μg/injection (protein, UniProt P06684 679-755, looked up)
C5a anaphylatoxin: NLHLLRQKIEEQAAKYKHSVPKKCCYDGARVNFYETCEERVARVTIGPLCIRAFNECCTIANKIRKESPHKPVQLGR
modifications: C5a anaphylatoxin
notes: recombinant mouse C5a, i.p. injected 5 μg/injection
survival rates during CLP-induced sepsis [5, 14]: decreased
survival during CLP-induced sepsis [5]: did not cause survival changes
LPS-mediated cytokine production by peritoneal immune cells [7]: reversed
serum D-dimer levels [8]: reversed
bacterial CFUs in the blood or liver homogenates [9]: not

B2: recombinant IL-1β: Recombinant mouse (mr) IL-1β, 40 μg/mouse i.p. (protein, UniProt P10749 118-269, looked up)
Interleukin-1 beta: VPIRQLHYRLRDEQQKSLVLSDPYELKALHLNGQNINQQVIFSMSFVQGEPSNDKIPVALGLKGKNLYLSCVMKDGTPTLQLESVDPKQYPKKKMEKRFVFNKIEVKSKVEFESAEFPNWYISTSQAEHKPVFLGNNSGQDIIDFTMESVSS
C5a levels during polymicrobial infection ([3]; Il-10−/− mice with CLP): not altered
serum and peritoneal IL-10 levels ([3]; Nod2−/− mice, polymicrobial infection (CLP)): enhanced
serum and peritoneal C5a generation [3]: enhanced
CD55 expression on F4/80−Ly6-G+ peritoneal cells ([4]; Il-10−/− mice): did not decrease
CD55 expression on F4/80−Ly6-G+ peritoneal cells [4, 15]: decreased
survival rates during CLP-induced sepsis [5, 14]: reduced
survival during CLP-induced sepsis [5]: did not affect
LPS-induced cytokine production by peritoneal immune cells ([7]; cells from Il-10−/− mice with CLP): did not alter
LPS-mediated cytokine production by peritoneal immune cells [7]: suppressed
phagocytosis of bacteria by peritoneal cells [10]: reduced
bacterial CFUs in the blood or liver homogenates [9]: reduced

B3: recombinant IL-10: Recombinant mouse IL-10, 30 μg/mouse i.p. (protein, UniProt P18893 19-178, looked up)
Interleukin-10: SRGQYSREDNNCTHFPVGQSHMLLELRTAFSQVKTFFQTKDQLDNILLTDSLMQDFKGYLGCQALSEMIQFYLVEVMPQAEKHGPEIKEHLNSLGEKLKTLRMRLRRCHRFLPCENKSKAVEQVKSDFNKLQDQGVYKAMNEFDIFINCIEAYMMIKMKS
serum and peritoneal C5a generation [3]: enhanced
CD55 expression on F4/80−Ly6-G+ peritoneal cells [4, 15]: decreased
survival rates during CLP-induced sepsis [5, 14]: reduced
survival during CLP-induced sepsis [5]: did not affect
LPS-mediated cytokine production by peritoneal immune cells [7]: suppressed
bacterial CFUs in the blood or liver homogenates [9]: not

Source: patent US20130251702A1, “METHOD FOR SCREENING COMPOUNDS FOR TREATING SEPSIS TARGETING NOD2 SIGNALLING PATHWAY AND COMPOSITION FOR TREATING SEPSIS COMPRISING NOD2 SIGNALLING PATHWAY INHIBITORS” (SNU R&DB FOUNDATION, priority 2012, published 2013)
